{"source": "patent US20040197818A1", "about": "(UNIVERSITY OF UTAH RESEARCH FOUNDATION, published 2004)", "binders": {"B1": {"name": "rMiRP1 (other)", "chain": "MTTLANLTQTLEDAFKKVFITYMDSWRRNTTAEQQALQARVDAENFYYVILYLMVMIGMFAFIVVAILVSTVKSKRREHSQDPYHQYIVEDWQQKYRSQILHLEDSKATIHENLGATGFTVSP", "modifications": "35S-methionine label in the in vitro binding assay"}, "B2": {"name": "wild type human MiRP1 (other)", "chain": "MSTLSNFTQTLEDVFRRIFITYMDNWRQNTTAEQEALQAKVDAENFYYVILYLMVMIGMFSFIIVAILVSTVKSKRREHSNDPYHQYIVEDWQEKYKSQILNLEESKATIHENIGAAGFKMSP"}, "B3": {"name": "Q9E-hMiRP1 (other)", "chain": "B2 chain with Q9E"}, "B4": {"name": "T8A-hMiRP1 (other)", "chain": "B2 chain with T8A"}, "B5": {"name": "M54T-hMiRP1 (other)", "chain": "B2 chain with M54T"}}, "key": {"[1]": {"target": "T1, HERG (human, UniProt Q12809 1-1159)", "T1 sequence (Q12809 whole entry)": "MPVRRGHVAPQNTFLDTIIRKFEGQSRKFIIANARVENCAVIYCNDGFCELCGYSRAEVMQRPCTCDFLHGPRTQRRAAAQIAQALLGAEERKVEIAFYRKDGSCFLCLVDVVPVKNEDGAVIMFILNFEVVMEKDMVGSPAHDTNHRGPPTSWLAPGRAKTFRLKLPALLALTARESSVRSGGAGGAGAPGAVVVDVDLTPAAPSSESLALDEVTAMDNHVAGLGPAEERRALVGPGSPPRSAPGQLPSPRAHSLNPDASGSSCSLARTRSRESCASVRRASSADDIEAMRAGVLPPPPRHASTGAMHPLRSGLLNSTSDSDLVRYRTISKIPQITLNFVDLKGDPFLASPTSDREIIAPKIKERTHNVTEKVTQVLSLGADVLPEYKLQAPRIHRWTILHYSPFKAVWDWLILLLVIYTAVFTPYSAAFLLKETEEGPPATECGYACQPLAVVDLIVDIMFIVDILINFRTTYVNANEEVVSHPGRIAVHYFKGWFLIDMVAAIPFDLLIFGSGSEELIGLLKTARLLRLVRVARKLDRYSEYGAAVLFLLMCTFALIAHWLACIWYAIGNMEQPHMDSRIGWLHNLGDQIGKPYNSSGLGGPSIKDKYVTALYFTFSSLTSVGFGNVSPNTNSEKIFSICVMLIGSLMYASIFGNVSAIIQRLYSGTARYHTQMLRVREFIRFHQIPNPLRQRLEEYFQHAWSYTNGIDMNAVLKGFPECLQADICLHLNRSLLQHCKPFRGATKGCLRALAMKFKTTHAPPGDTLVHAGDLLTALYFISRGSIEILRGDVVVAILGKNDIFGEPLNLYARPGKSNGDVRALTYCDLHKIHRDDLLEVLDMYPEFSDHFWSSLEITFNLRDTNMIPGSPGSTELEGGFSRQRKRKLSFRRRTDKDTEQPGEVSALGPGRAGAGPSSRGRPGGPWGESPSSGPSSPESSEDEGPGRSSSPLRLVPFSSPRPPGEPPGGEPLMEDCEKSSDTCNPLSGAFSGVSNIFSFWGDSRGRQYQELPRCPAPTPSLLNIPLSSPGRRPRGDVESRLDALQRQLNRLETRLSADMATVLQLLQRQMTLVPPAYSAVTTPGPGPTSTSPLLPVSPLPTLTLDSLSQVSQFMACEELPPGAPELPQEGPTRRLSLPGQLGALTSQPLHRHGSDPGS", "test": "cell-based or functional assay"}, "[2]": {"target": "T1, HERG", "test": "cell-based or functional assay", "remark": "listed apart in the source"}}, "note": "Positions count from the first letter of the chain named. Names may count otherwise.", "data": [{"binder": "B1", "values": [{"measurement": "deactivation rate, oocytes", "setting": "[1]", "result": 7, "unit": "fold"}, {"measurement": "deactivation rate, plasma-like ionic conditions, whole-cell", "setting": "[1]", "result": "~2", "unit": "fold"}]}, {"binder": "B2", "values": [{"measurement": "deactivation rate at -120 mV, CHO cells", "setting": "[1]", "result": "~3", "unit": "fold"}, {"measurement": "activation V1/2", "setting": "[2]", "result": -21, "unit": "mV"}, {"measurement": "deactivation fast time constant", "setting": "[2]", "result": 80}, {"measurement": "deactivation ratio If/(Is + If)", "setting": "[2]", "result": 0.82}, {"measurement": "deactivation slow time constant", "setting": "[2]", "result": 483}]}, {"binder": "B3", "values": [{"measurement": "activation V1/2", "setting": "[2]", "result": -12, "unit": "mV"}, {"measurement": "deactivation fast time constant", "setting": "[2]", "result": 100}, {"measurement": "deactivation ratio If/(Is + If)", "setting": "[2]", "result": 0.8}, {"measurement": "deactivation slow time constant", "setting": "[2]", "result": 750}]}, {"binder": "B4", "values": [{"measurement": "activation V1/2", "setting": "[2]", "result": -29, "unit": "mV"}, {"measurement": "deactivation fast time constant", "setting": "[2]", "result": 100}, {"measurement": "deactivation ratio If/(Is + If)", "setting": "[2]", "result": 0.83}, {"measurement": "deactivation slow time constant", "setting": "[2]", "result": 590}]}, {"binder": "B5", "values": [{"measurement": "deactivation rate against channels with wild type hMiRP1", "setting": "[1]", "result": "~3", "unit": "fold"}, {"measurement": "activation V1/2", "setting": "[2]", "result": -21, "unit": "mV"}, {"measurement": "deactivation fast time constant", "setting": "[2]", "result": 37}, {"measurement": "deactivation ratio If/(Is + If)", "setting": "[2]", "result": 0.81}, {"measurement": "deactivation slow time constant", "setting": "[2]", "result": 266}]}]}
